Measured values: patent US20210145976A1 (ARO BIOTHERAPEUTICS, published 2021)

Legend:
[1] = target: T1, recombinant biotinylated CD71 extracellular domain (Sino Biologics) with an N-terminal 6His tag (human, UniProt P02786 89-760, biotinylated (sites not given)); test: screening ELISA
T1 construct: extracellular domain; also called hCD71; huCD71

[2] = target: T1, recombinant biotinylated CD71 …; test: screening ELISA, ratio

T1 sequence (P02786 other isoform, or with tags, fused parts or gaps): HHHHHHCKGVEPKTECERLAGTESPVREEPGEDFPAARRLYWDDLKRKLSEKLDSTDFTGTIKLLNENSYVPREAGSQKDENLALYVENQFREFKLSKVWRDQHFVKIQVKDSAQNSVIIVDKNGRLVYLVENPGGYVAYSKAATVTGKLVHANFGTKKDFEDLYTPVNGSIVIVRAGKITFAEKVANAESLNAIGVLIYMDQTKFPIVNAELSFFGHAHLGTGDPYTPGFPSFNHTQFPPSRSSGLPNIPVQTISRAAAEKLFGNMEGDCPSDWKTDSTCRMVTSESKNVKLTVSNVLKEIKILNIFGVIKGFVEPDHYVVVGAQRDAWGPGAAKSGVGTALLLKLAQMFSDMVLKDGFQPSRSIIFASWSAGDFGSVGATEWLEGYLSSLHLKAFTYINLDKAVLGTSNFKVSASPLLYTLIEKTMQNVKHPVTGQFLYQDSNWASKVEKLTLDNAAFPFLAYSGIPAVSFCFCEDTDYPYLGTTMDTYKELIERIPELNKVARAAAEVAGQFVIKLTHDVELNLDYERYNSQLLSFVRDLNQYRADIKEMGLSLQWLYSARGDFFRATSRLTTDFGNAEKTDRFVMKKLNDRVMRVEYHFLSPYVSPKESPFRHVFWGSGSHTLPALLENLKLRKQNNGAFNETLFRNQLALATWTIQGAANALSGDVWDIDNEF

Row | Binder | hCD71 [1] | hCD71:HSA [2]
1 | SEQ ID NO 198 (designed binder, FN3 domain) MLPAPKNLVVSRVTEDSARLSWTAPDAAFDSFLIAYNEDRKFGEAIVLTVPGSERSYDLTGLKPGTEYDVWIEGVKGGSLSFPLSAIFTT | 3.44e+06 | 1130
2 | SEQ ID NO 216 (designed binder, FN3 domain) MLPAPKNLVVSRVTEDSARLSWTAPDAAFDSFPIAYAEPTPSGEAIVLTVPGSERSYDLTGLKPGTEYSVLIHGVKGGGLSLPLSAIFTT | 2.19e+06 | 101
3 | SEQ ID NO 223 (designed binder, FN3 domain) MLPAPKNLVVSRVTEDSARLSWTAPDAAFDSFTIWYAEALGDGEAIVLTVPGSERSYDLTGLKPGTEYFVDIPGVKGGTRSSPLSAISTT | 1.67e+06 | 32
4 | SEQ ID NO 215 (designed binder, FN3 domain) MLPAPKNLVVSRVTEDSARLSWTAPDAAFDSFLIPYAETSPTGEAIVLTVPGSERSYDLTGLKPGTEYSVLIHGVKGGYPSSPLSAIFTT | 2.13e+06 | 1210
5 | SEQ ID NO 211 (designed binder, FN3 domain) MLPAPKNLVVSRVTEDSARLSWTAPDAAFDSFWINYYEAQPDGEAIVLTVPGSERSYDLTGLKPGTEYDVEIAGVKGGTASLPLSAIFTT | 1e+06 | 334
6 | SEQ ID NO 202 (designed binder, FN3 domain) MLPAPKNLVVSRVTEDSARLSWTAPDAAFDSFYIDYLELTYSGEAIVLTVPGSERSYDLTGLKPGTEYYVYIYGVKGGYPSSPLSAIFTT | 4.5e+06 | 1610
7 | SEQ ID NO 228 (designed binder, FN3 domain) MLPAPKNLVVSRVTEDSARLSWTAPDAAFDSFEIYYVEWSEAGEAIVLTVPGSERSYDLTGLKPGTEYRVEIRGVKGGSWSSPLSAIFTT | 2.54e+06 | 1060
8 | SEQ ID NO 205 (designed binder, FN3 domain) MLPAPKNLVVSRVTEDSARLSWTAPDAAFDSFDIDYDEPAWNGEAIVLTVPGSERSYDLTGLKPGTEYRVFIYGVKGGNTSWPLSAIFTT | 434000 | 130
9 | SEQ ID NO 207 (designed binder, FN3 domain) MLPAPKNLVVSRVTEDSARLSWTAPDAAFDSFFIGYLEPQPPGEAIVLTVPGSERSYDLTGLKPGTEYNVTIQGVKGGTPSEPLSAISTT | 1.6e+06 | 62
10 | SEQ ID NO 219 (designed binder, FN3 domain) MLPAPKNLVVSRVTEDSARLSWTAPDAAFDSFHIDYLELTYAGEAIVLTVPGSERSYDLTGLKPGTEYYVTIYGVKGGYPSSPLSAIFTT | 3.31e+06 | 1270
11 | SEQ ID NO 243 (designed binder, FN3 domain) MLPAPKNLVVSRVTEDSARLSWTAPDAAFDSFAIPYYEWVNHGEAIVLTVPGSERSYDLTGLKPGTEYPVGIDGVKGGGPSWPLSAIFTT | 2.4e+06 | 237
12 | SEQ ID NO 210 (designed binder, FN3 domain) MLPAPKNLVVSRVTEDSARLSWTAPDAAFDSFSIVYGERFVNGEAIVLTVPGSERSYDLTGLKPGTEYHVYIDGVKGGDLSWPLSAIFTT | 1.16e+06 | 514
13 | SEQ ID NO 240 (designed binder, FN3 domain) MLPAPKNLVVSRVTEDSARLSWTAPDAAFDSFRIKYLEWWLGGEAIVLTVPGSERSYDLTGLKPGTEYWVDIQGVKGGVLSWPLSAIFTT | 3.03e+06 | 1480
14 | SEQ ID NO 236 (designed binder, FN3 domain) MLPAPKNLVVSRVTEDSARLSWTAPDAAFDSFWIEYYEELGSGEAIVLTVPGSERSYDLTGLKPGTEYRVYIYGVKGGYPSSPLSAIFTT | 3.44e+06 | 2300
15 | SEQ ID NO 200 (designed binder, FN3 domain) MLPAPKNLVVSRVTEDSARLSWTAPDAAFDSFYIEYYEWMHTGEAIVLTVPGSERSYDLTGLKPGTEYSVYIYGVKGGYPSSPLSAIFTT | 3.63e+06 | 1730

Now from value to binder:

Row | hCD71 [1] | hCD71:HSA [2] | Binder
16 | 1.98e+06 | 900 | SEQ ID NO 256 (designed binder, FN3 domain) MLPAPKNLVVSRVTEDSARLSWTAPDAAFDSFHIVYHEPRPSGEAIVLTVPGSERSYDLTGLKPGTEYEVGIVGVKGGDLSVPLSAIFTT
17 | 2.62e+06 | 903 | SEQ ID NO 245 (designed binder, FN3 domain) MLPAPKNLVVSRITEDSARLSWTAPDAAFDSFGIAYNEGDHYGEAIVLTVPGSERSYDLTGLKPGTEYSVWIEGVKGGNLSYPLSAIFTT
18 | 1.88e+06 | 92 | SEQ ID NO 263 (designed binder, FN3 domain) MLPAPKNLVVSRVTEDSARLSWTAPDAAFDSFFIGYLEPQPPGEAIVLTVPGSERSYDLTGLKPGTEYNVTIQGVKGGFPSMPLSAISTT
19 | 1.04e+06 | 98 | SEQ ID NO 258 (designed binder, FN3 domain) MLPAPKNLVVSRVTEDSARLSWTAPDAAFDSFFIPYAEPSPTGEAIVLTVPGSERSYDLTGLKPGTEYDVWIEGVKGGVLSWPLSAIFTT
20 | 2.74e+06 | 284 | SEQ ID NO 251 (designed binder, FN3 domain) MLPAPKNLVVSRVTEDSARLSWTAPDAAFDSFFIGYLEPQPPGEAIVLTVPGSERSYDLTGLKPGTEYNVTIQGVKGGFPSMPLSAIVTT
21 | 2.98e+06 | 1170 | SEQ ID NO 264 (designed binder, FN3 domain) MLPAPKNLVVSRVTEDSARLSWTAPDAAFDSFRIKYQEWWVEGEAIVLTVPGSERSYDLTGLKPGTEYVVQIAGVKGGLSSYPLSAIFTT
22 | 1.57e+06 | 1120 | SEQ ID NO 246 (designed binder, FN3 domain) MLPAPKNLVVSRVTEDSARLSWTAPDAAFDSFTIAYNEQNHYGEAIVLTVPGSERSYDLTGLKPGTEYGVWIEGVKGGTLSWPLSAIFTT
23 | 4.38e+06 | 1860 | SEQ ID NO 262 (designed binder, FN3 domain) MLPAPKNLVVSRVTEDSARLSWTAPDAAFDSFAIEYFEYTGEGEAIVLTVPGSERSYDLTGLKPGTEYYVGIYGVKGGYLSRPLSAIFTT
24 | 3.24e+06 | 36 | SEQ ID NO 254 (designed binder, FN3 domain) MLPAPKNLVVSRVTEDSARLSWTAPDAAFDSFFIPYAEPSPTGEAIVLTVPGSERSYDLTGLKPGTEYSVLIHGVKGGHLSDPLSAISTT
25 | 1.09e+06 | 58 | SEQ ID NO 250 (designed binder, FN3 domain) MLPAPKNLVVSRVTEDSARLSWTAPDAAFDSFFIGYLEPYPPGEAIVLTVPGSERSYDLTGLKPGTEYAVEIAGVKGGLLSSPLSAISTT
26 | 1.84e+06 | 403 | SEQ ID NO 255 (designed binder, FN3 domain) MLPAPKNLVVSRVTEDSARLSWTAPDAAFDSFDIEYYELIGRGEAIVLTVPGSERSYDLTGLKPGTEYWVGIYGVKGGWLSRPLSAIFTT
